The record followed here is US20140256916A1 (Sanofi, published 2014).

Assay [1] addresses T1, CA6, tumor-associated MUC1-sialoglycotope (human, UniProt P15941 24-1255, carries the CA6 sialoglycotope (sialylated glycan epitope); sites not stated).
T1 construct: whole, on cells; In the assays it is presented on WISH cells (CA6+); A2780 cells are CA6 negative; also called CA6 antigen; human CA6 tumor antigen
The experiment in a line: flow cytometry (FACS) on WISH cells (CA6+), normalized fluorescence, without DOTA. Background: A flow cytometer gives signals particle by particle.

Assay [2] has as its target T1, CA6, tumor-associated …. Kind of assay: FACS binding assay (DOTA Conjugate), Kd app.
In assay [3] the target is T1, CA6, tumor-associated …. Kind of assay: FACS binding assay (Free), Kd app; unconjugated (Free) B-Fab, not DOTA conjugate.
Assay [4] addresses T1, CA6, tumor-associated …. The experiment in a line: flow cytometry (FACS) on WISH cells (CA6+). As to the method:
The B-Fab 1153 is a DS6-based engineered antibody-like binding protein containing a both L1 and L2 linkers as (G45)₂ and not containing a C-terminal 6x-His tag. Since this protein was lacking a His tag the protein was purified by […], Kappa-select and SEC. The in vitro binding solution was prepared at 1.6 mg/ml in PBS and binding affinity was characterized using flow cytometry in the WISH CA6+ cell line (FIG. 3C and FIG. 3D).

The target in assay [5] is T1, CA6, tumor-associated …. The experiment in a line: flow cytometry on WISH (CA6+) cells (method from Example 4).
Assay [6] has as its target T1, CA6, tumor-associated …. Kind of assay: flow cytometry (FACS) on WISH cells (CA6+), normalized fluorescence, with DOTA.
The target in assay [7] is T1, CA6, tumor-associated …. Kind of assay: FACS binding assay (Free), Kd app.

T1 sequence (P15941 24-1255): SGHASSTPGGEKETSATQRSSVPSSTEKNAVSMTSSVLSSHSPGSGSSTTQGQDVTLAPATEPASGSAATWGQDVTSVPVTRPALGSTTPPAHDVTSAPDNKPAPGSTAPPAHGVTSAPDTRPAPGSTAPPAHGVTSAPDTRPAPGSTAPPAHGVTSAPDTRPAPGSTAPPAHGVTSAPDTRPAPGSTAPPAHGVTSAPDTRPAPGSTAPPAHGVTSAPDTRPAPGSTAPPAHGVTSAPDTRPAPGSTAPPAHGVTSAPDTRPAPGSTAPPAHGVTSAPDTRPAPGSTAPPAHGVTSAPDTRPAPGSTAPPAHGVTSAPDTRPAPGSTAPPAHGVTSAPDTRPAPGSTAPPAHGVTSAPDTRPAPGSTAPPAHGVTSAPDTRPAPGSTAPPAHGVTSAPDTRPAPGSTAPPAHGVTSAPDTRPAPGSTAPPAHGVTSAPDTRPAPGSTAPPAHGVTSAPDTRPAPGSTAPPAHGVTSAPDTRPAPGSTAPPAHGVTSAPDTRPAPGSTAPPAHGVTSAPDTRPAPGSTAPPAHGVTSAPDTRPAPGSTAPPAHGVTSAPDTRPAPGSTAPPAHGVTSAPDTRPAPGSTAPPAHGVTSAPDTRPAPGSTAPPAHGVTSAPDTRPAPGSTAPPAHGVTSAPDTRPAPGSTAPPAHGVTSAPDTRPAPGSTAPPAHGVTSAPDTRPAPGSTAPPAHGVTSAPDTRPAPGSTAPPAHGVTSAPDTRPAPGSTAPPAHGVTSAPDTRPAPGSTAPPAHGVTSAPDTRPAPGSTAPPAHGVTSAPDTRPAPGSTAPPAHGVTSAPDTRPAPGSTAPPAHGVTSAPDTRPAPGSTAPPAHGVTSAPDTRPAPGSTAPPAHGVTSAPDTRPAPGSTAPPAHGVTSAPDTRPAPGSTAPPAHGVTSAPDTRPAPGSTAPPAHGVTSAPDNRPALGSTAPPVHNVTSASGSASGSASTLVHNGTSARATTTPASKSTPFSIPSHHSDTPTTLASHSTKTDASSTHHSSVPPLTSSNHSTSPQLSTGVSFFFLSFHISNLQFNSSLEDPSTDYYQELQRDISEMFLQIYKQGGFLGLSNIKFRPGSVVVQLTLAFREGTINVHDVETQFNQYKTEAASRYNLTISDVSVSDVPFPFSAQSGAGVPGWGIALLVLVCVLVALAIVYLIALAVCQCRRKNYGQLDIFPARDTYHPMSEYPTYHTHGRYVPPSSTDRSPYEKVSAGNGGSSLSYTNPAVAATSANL

B1: DS6 B-Fab antibody-like binding protein (variant not named) (Fab)
light: EIVLTQSPATMSASPGERVTITCSAHSSVSFMHWFQQKPGTSPKLWIYSTSSLASGVPARFGGSGSGTSYSLTISSMEAEDAATYYCQQRSSFPLTFGAGTKLELKGGGGSGGGGSEIVLTQSPATMSASPGERVTITCSAHSSVSFMHWFQQKPGTSPKLWIYSTSSLASGVPARFGGSGSGTSYSLTISSMEAEDAATYYCQQRSSFPLTFGAGTKLELKRTVAAPSVFIFPPSDEQLKSGTASVVCLLNNFYPREAKVQWKVDNALQSGNSQESVTEQDSKDSTYSLSSTLTLSKADYEKHKVYACEVTHQGLSSPVTKSFNRGEC
heavy: EAQLVQSGAEVVKPGASVKMSCKASGYTFTSYNMHWVKQTPGQGLEWIGYIYPGNGATNYNQKFQGKATLTADPSSSTAYMQISSLTSEDSAVYFCARGDSVPFAYWGQGTLVTVSAGGGGSGGGGSEAQLVQSGAEVVKPGASVKMSCKASGYTFTSYNMHWVKQTPGQGLEWIGYIYPGNGATNYNQKFQGKATLTADPSSSTAYMQISSLTSEDSAVYFCARGDSVPFAYWGQGTLVTVSAASTKGPSVFPLAPSSKSTSGGTAALGCLVKDYFPEPVTVSWNSGALTSGVHTFPAVLQSSGLYSLSSVVTVPSSSLGTQTYICNVNHKPSNTKVDKKVEPKSCDKTHT
notes: also called B-Fab DS6 based engineered antibody
B1: in assay [1], the 50% effective concentration (EC50 (read off the curve)) – broadly, the concentration needed to bring the measured effect to its halfway point – was approximately 2 nM and the Kd stood at 2.2 nM.

B2: DOTA conjugate of B-Fab 1153 (Fab)
light: EIVLTQSPATMSASPGERVTITCSAHSSVSFMHWFQQKPGTSPKLWIYSTSSLASGVPARFGGSGSGTSYSLTISSMEAEDAATYYCQQRSSFPLTFGAGTKLELKGGGGSGGGGSEIVLTQSPATMSASPGERVTITCSAHSSVSFMHWFQQKPGTSPKLWIYSTSSLASGVPARFGGSGSGTSYSLTISSMEAEDAATYYCQQRSSFPLTFGAGTKLELKRTVAAPSVFIFPPSDEQLKSGTASVVCLLNNFYPREAKVQWKVDNALQSGNSQESVTEQDSKDSTYSLSSTLTLSKADYEKHKVYACEVTHQGLSSPVTKSFNRGEC
heavy: EAQLVQSGAEVVKPGASVKMSCKASGYTFTSYNMHWVKQTPGQGLEWIGYIYPGNGATNYNQKFQGKATLTADPSSSTAYMQISSLTSEDSAVYFCARGDSVPFAYWGQGTLVTVSAGGGGSGGGGSEAQLVQSGAEVVKPGASVKMSCKASGYTFTSYNMHWVKQTPGQGLEWIGYIYPGNGATNYNQKFQGKATLTADPSSSTAYMQISSLTSEDSAVYFCARGDSVPFAYWGQGTLVTVSAASTKGPSVFPLAPSSKSTSGGTAALGCLVKDYFPEPVTVSWNSGALTSGVHTFPAVLQSSGLYSLSSVVTVPSSSLGTQTYICNVNHKPSNTKVDKKVEPKSCDKTHT
modifications: DOTA chelator conjugated, sites not stated (1.5-2.5 DOTA/fragment)
notes: also called B-Fab (DOTA Conjugate)
B2 displayed a Kd in assay [2] of 7.4 nM.

B3: B-Fab 1153 (Fab)
light: EIVLTQSPATMSASPGERVTITCSAHSSVSFMHWFQQKPGTSPKLWIYSTSSLASGVPARFGGSGSGTSYSLTISSMEAEDAATYYCQQRSSFPLTFGAGTKLELKGGGGSGGGGSEIVLTQSPATMSASPGERVTITCSAHSSVSFMHWFQQKPGTSPKLWIYSTSSLASGVPARFGGSGSGTSYSLTISSMEAEDAATYYCQQRSSFPLTFGAGTKLELKRTVAAPSVFIFPPSDEQLKSGTASVVCLLNNFYPREAKVQWKVDNALQSGNSQESVTEQDSKDSTYSLSSTLTLSKADYEKHKVYACEVTHQGLSSPVTKSFNRGEC
heavy: EAQLVQSGAEVVKPGASVKMSCKASGYTFTSYNMHWVKQTPGQGLEWIGYIYPGNGATNYNQKFQGKATLTADPSSSTAYMQISSLTSEDSAVYFCARGDSVPFAYWGQGTLVTVSAGGGGSGGGGSEAQLVQSGAEVVKPGASVKMSCKASGYTFTSYNMHWVKQTPGQGLEWIGYIYPGNGATNYNQKFQGKATLTADPSSSTAYMQISSLTSEDSAVYFCARGDSVPFAYWGQGTLVTVSAASTKGPSVFPLAPSSKSTSGGTAALGCLVKDYFPEPVTVSWNSGALTSGVHTFPAVLQSSGLYSLSSVVTVPSSSLGTQTYICNVNHKPSNTKVDKKVEPKSCDKTHT
notes: also called B-Fab (G4S)2 linker; B-Fab (G4S)2 linker without C-terminal 6xHis tag
With B3, the results for the Kd in assay [3] and in assay [5] were 4 nM and 2.3 nM, respectively. Also, the “EC50 (read off the curve)” value in assay [4] is approximately 2 nM.

B4: B-Fab 1151 (Fab)
light: EIVLTQSPATMSASPGERVTITCSAHSSVSFMHWFQQKPGTSPKLWIYSTSSLASGVPARFGGSGSGTSYSLTISSMEAEDAATYYCQQRSSFPLTFGAGTKLELKGGGGSGGGGSEIVLTQSPATMSASPGERVTITCSAHSSVSFMHWFQQKPGTSPKLWIYSTSSLASGVPARFGGSGSGTSYSLTISSMEAEDAATYYCQQRSSFPLTFGAGTKLELKRTVAAPSVFIFPPSDEQLKSGTASVVCLLNNFYPREAKVQWKVDNALQSGNSQESVTEQDSKDSTYSLSSTLTLSKADYEKHKVYACEVTHQGLSSPVTKSFNRGEC
heavy: EAQLVQSGAEVVKPGASVKMSCKASGYTFTSYNMHWVKQTPGQGLEWIGYIYPGNGATNYNQKFQGKATLTADPSSSTAYMQISSLTSEDSAVYFCARGDSVPFAYWGQGTLVTVSAGGGGSGGGGSEAQLVQSGAEVVKPGASVKMSCKASGYTFTSYNMHWVKQTPGQGLEWIGYIYPGNGATNYNQKFQGKATLTADPSSSTAYMQISSLTSEDSAVYFCARGDSVPFAYWGQGTLVTVSAASTKGPSVFPLAPSSKSTSGGTAALGCLVKDYFPEPVTVSWNSGALTSGVHTFPAVLQSSGLYSLSSVVTVPSSSLGTQTYICNVNHKPSNTKVDKKVEPKSCDKTHT
notes: It also carries a C-terminal 6x-His tag; also called B-Fab (G4S)2 linker and C-terminal 6x-His tag
B4 gave a Kd in assay [5] of 3.4 nM.

B5: DOTA-DS6 conjugated antibody (B-Fab with DOTA, variant not named) (Fab)
light: EIVLTQSPATMSASPGERVTITCSAHSSVSFMHWFQQKPGTSPKLWIYSTSSLASGVPARFGGSGSGTSYSLTISSMEAEDAATYYCQQRSSFPLTFGAGTKLELKGGGGSGGGGSEIVLTQSPATMSASPGERVTITCSAHSSVSFMHWFQQKPGTSPKLWIYSTSSLASGVPARFGGSGSGTSYSLTISSMEAEDAATYYCQQRSSFPLTFGAGTKLELKRTVAAPSVFIFPPSDEQLKSGTASVVCLLNNFYPREAKVQWKVDNALQSGNSQESVTEQDSKDSTYSLSSTLTLSKADYEKHKVYACEVTHQGLSSPVTKSFNRGEC
heavy: EAQLVQSGAEVVKPGASVKMSCKASGYTFTSYNMHWVKQTPGQGLEWIGYIYPGNGATNYNQKFQGKATLTADPSSSTAYMQISSLTSEDSAVYFCARGDSVPFAYWGQGTLVTVSAGGGGSGGGGSEAQLVQSGAEVVKPGASVKMSCKASGYTFTSYNMHWVKQTPGQGLEWIGYIYPGNGATNYNQKFQGKATLTADPSSSTAYMQISSLTSEDSAVYFCARGDSVPFAYWGQGTLVTVSAASTKGPSVFPLAPSSKSTSGGTAALGCLVKDYFPEPVTVSWNSGALTSGVHTFPAVLQSSGLYSLSSVVTVPSSSLGTQTYICNVNHKPSNTKVDKKVEPKSCDKTHT
modifications: DOTA chelator conjugated, sites not stated
Turning to B5, in assay [6], the “EC50 (read off the curve)” value is approximately 6 nM and the Kd was 6.6 nM.

B6: anti-CA6 diabody of SEQ ID NO: 12 fused to a tag of SEQ ID NO: 14 (other)
chain: EIVLTQSPATMSASPGERVTITCSAHSSVSFMHWFQQKPGTSPKLWIYSTSSLASGVPARFGGSGSGTSYSLTISSMEAEDAATYYCQQRSSFPLTFGAGTKLELKGGGSGGGGEAQLVQSGAEVVKPGASVKMSCKASGYTFTSYNMHWVKQTPGQGLEWIGYIYPGNGATNYNQKFQGKATLTADPSSSTAYMQISSLTSEDSAVYFCARGDSVPFAYWGQGTLVTVSAGGCGGHHHHHH
In assay [7], B6 displayed a Kd of 10 nM.

B7: DOTA conjugate of the anti-CA6 diabody (SEQ ID NO: 12 fused to SEQ ID NO: 14) (other)
chain: EIVLTQSPATMSASPGERVTITCSAHSSVSFMHWFQQKPGTSPKLWIYSTSSLASGVPARFGGSGSGTSYSLTISSMEAEDAATYYCQQRSSFPLTFGAGTKLELKGGGSGGGGEAQLVQSGAEVVKPGASVKMSCKASGYTFTSYNMHWVKQTPGQGLEWIGYIYPGNGATNYNQKFQGKATLTADPSSSTAYMQISSLTSEDSAVYFCARGDSVPFAYWGQGTLVTVSAGGCGGHHHHHH
modifications: DOTA chelator conjugated, sites not stated
notes: Homodimeric diabody conjugated to DOTA; also called Diabody (DOTA Conjugate)
With B7, the Kd in assay [2] was 7.5 nM.

B8: B-Fab 1152 (Fab)
light: EIVLTQSPATMSASPGERVTITCSAHSSVSFMHWFQQKPGTSPKLWIYSTSSLASGVPARFGGSGSGTSYSLTISSMEAEDAATYYCQQRSSFPLTFGAGTKLELKGGGGSEIVLTQSPATMSASPGERVTITCSAHSSVSFMHWFQQKPGTSPKLWIYSTSSLASGVPARFGGSGSGTSYSLTISSMEAEDAATYYCQQRSSFPLTFGAGTKLELKRTVAAPSVFIFPPSDEQLKSGTASVVCLLNNFYPREAKVQWKVDNALQSGNSQESVTEQDSKDSTYSLSSTLTLSKADYEKHKVYACEVTHQGLSSPVTKSFNRGEC
heavy: EAQLVQSGAEVVKPGASVKMSCKASGYTFTSYNMHWVKQTPGQGLEWIGYIYPGNGATNYNQKFQGKATLTADPSSSTAYMQISSLTSEDSAVYFCARGDSVPFAYWGQGTLVTVSAGGGGSEAQLVQSGAEVVKPGASVKMSCKASGYTFTSYNMHWVKQTPGQGLEWIGYIYPGNGATNYNQKFQGKATLTADPSSSTAYMQISSLTSEDSAVYFCARGDSVPFAYWGQGTLVTVSAASTKGPSVFPLAPSSKSTSGGTAALGCLVKDYFPEPVTVSWNSGALTSGVHTFPAVLQSSGLYSLSSVVTVPSSSLGTQTYICNVNHKPSNTKVDKKVEPKSCDKTHT
notes: also called B-Fab G4S linker and C-terminal 6x-His tag; B-Fab DS6 based engineered antibody with GGGGS (G4S) linker and C-terminal 6x-His tag
The molecule B8 returned a Kd in assay [5] of 88 nM.
